Measured values taken from paper PMC12137749 (Nature Communications, 2025).
Read-outs that look alike come from different tables or passages of the source.

Assays:
[1] = target: the molecule itself
cryo-EM structure = target: the molecule itself; experiment: cryo-EM structure

B1: full-length MPXV E5 (mpox virus helicase-primase E5), wild type (enzyme)
chain: MDAAIRGNDVIFVLKTIGVPSACRQNEDPRFVEAFKCDELERYIDNNPECTLFESLRDEEAYSIVRIFMDVDLDACLDEIDYLTAIQDFIIEVSNCVARFAFTECGAIHENVIKSMRSNFSLTKSTNRDKTSFHIIFLDTYTTMDTLIAMKRTLLELSRSSENPLTRSIDTAVYRRKTTLRVVGTRKNPNCDTIHVMQPPHDNIEDYLFTYVDMNNNSYYFSLQRRLEDLVPDKLWEPGFISFEDAIKRVSKIFINSIINFNDLDENNFTTVPLVIDYVTPCALCKKRSHKHPHQLSLENGAIRIYKTGNPHSCKVKIVPLDGNKLFNIAQRILDTNSVLLTERGDHIVWINNSWKFNSEEPLITKLILSIRHQLPKEYSSELLCPRKRKTVEANIRDMLVDSVETDTYPDKLPFKNGVLDLVDGMFYSGDDAKKYTCTVSTGFKFDDTKFVEDSPEMEELMNIINDIQPLTDENKKNRELYEKTLSSCLCGATKGCLTFFFGETATGKSTTKRLLKSAIGDLFVETGQTILTDVLDKGPNPFIANMHLKRSVFCSELPDFACSGSKKIRSDNIKKLTEPCVIGRPCFSNKINNRNHATIIIDTNYKPVFDRIDNALMRRIAVVRFRTHFSQPSGREAAENNDAYDKVKLLDEGLDGKIQNNRYRFAFLYLLVKWYKKYHIPIMKLYPTPEEIPDFAFYLKIGTLLVSSSVKHIPLMTDLSKKGYILYDNVVTLPLTTFQQKISKYFNSRLFGHDIESFINRHKKFANVSDEYLQYIFIEDISSP
[1]
  stoichiometry N: 6
cryo-EM structure
  stoichiometry N: 12
